Assay results published in patent publication US12514920B1, “Respiratory syncytial virus mRNA vaccine, and preparation method therefor and use thereof” (Hangzhou Tianlong Pharmaceutical Co., Ltd., priority 2024, dated 2026).
Substitutions are numbered along the chain they refer to.

What was measured:
[1] = molecular target: RSV pre-F antibody (3C12); test: Affinity of RSV F antigen mutants by BLI, epitope Φ; format: binding
Experimental: To investigate the affinity of the RSV F antigen mutants for antibodies specifically recognizing epitopes in a pre-fusion conformation, the affinity was determined by a bio-layer interferometry (BLI) method in this example.
• 293T cells (purchased from ATCC cell bank); • RSV pre-F antibody (3C12), epitope Φ (Novoprotein, Cat. No.: DA101); • RSV pre-F antibody (7H11), epitope Quaternary (Novoprotein, Cat. No.: DA109); • Experimental group: mRNA vaccines after screening in Example 6;
Protein sample preparation: the experimental procedure was the same as in Example 3.
The antibodies were each diluted to 10 µg/mL with a 1×PBST solution. […]
The detection was performed using a protein interaction analyzer, and the results were analyzed using Data Analysis 12.0 software to obtain the binding rate, dissociation rate, and affinity constants.
Bio-Layer interferometry (referred to as BLI) is a label-free real-time monitoring optical detection technique, mainly used for comprehensive quantitative analysis of the interaction between biomolecules and protein concentration determination. […]
In the present application, the affinity of target proteins for 2 antibodies was analyzed by a BLI method, wherein the RSV pre-F antibody (3C12) recognizes the epitope […], and the RSV pre-F antibody (7H11) recognizes the epitope Quaternary.

[2] = molecular target: RSV pre-F antibody (7H11); test: Affinity of RSV F antigen mutants by BLI, epitope Quaternary; format: binding
Excerpt: The antibodies were each diluted to 10 g/mL with a 1×PBST solution.

B1: YK-RSV-048 (protein)
chain: QNITEEFYQSTCSAVSKGYLGALRTGWYTSVITIELSNIKENKCNGTDAKVKLIKQELDKYKNAVTDLQLLMQSTPATGSGSFLGFLCGVGSAIASGVAVSKVLHLEGEVNKIKSALLSTNKAVVSLSNGVSVLTFKVLDLKNYIDKQLLPILNKQSCSIPNIETVIEFQQKNNRLLEITREFSVNAGVTTPVSTYMLTNSELLSLINDMPITNDQKKLMSNNVQIVRQQSYSIMSIIKEEVLAYVVQLPLYGVIDTPCWKLHTSPLCTTNTKEGSNICLTRTDRGWYCDNAGSVSFFPQAETCKVQSNRVFCDTMCSRTLPSEVNLCNVDIFNPKYDCKIMTSKTDVSSSVITSLGAIVSCYGKTKCTASNKNRGIIKTFSNGCDYVSNKGVDTVSVGNTLYYVNKQEGQSLYVKGEPIINFYDPLVFPSDEFDASISQVNEKINQSLAFIRKSDELLHNVNAGKSTTNIMITTIIIVIIVILLSLIAVGLLLY
[1]
  Kd: 0.183 nM
[2]
  Kd: 0.227 nM

B2: YK-RSV-050 (protein)
chain: B1 chain with L87C, C88L
[1]
  Kd: 0.552 nM
[2]
  Kd: 0.115 nM
